Data on 22 molecules can be found in article PMC12416549 (2024).

Residue numbers refer to the chain shown, from its start. Names may count otherwise.

B1: E9K (designed binder)
chain: MTLQELLRKEALRRAEAEAFRYALELLAEKFPEQKEYLLDLAEEIESQIRSLSGVDVEDVRKFLDKEWAWVKELLAEHPAELAEVEAARAARLAELRAEVEAKVAA
B2: R92H (designed binder)
chain: B1 chain with K9E, R92H
B3: A98H (designed binder)
chain: B1 chain with K9E, A98H
B4: E29P (designed binder)
chain: B1 chain with K9E, E29P
B5: A15D (designed binder)
chain: B1 chain with K9E, A15D
B6: V100A (designed binder)
chain: B1 chain with K9E, V100A
B7: E77K (designed binder)
chain: B1 chain with K9E, E77K
B8: D59F (designed binder)
chain: B1 chain with K9E, D59F
B9: L96E (designed binder)
chain: B1 chain with K9E, L96E
B10: K103V (designed binder)
chain: B1 chain with K9E, K103V
B11: D65L (designed binder)
chain: B1 chain with K9E, D65L
B12: Y37M (designed binder)
chain: B1 chain with K9E, Y37M
B13: V60E (designed binder)
chain: B1 chain with K9E, V60E
B14: A88H (designed binder)
chain: B1 chain with K9E, A88H
B15: E73H (designed binder)
chain: B1 chain with K9E, E73H
B16: E95P (designed binder)
chain: B1 chain with K9E, E95P
B17: A80Y (designed binder)
chain: B1 chain with K9E, A80Y
B18: K66R (designed binder)
chain: B1 chain with K9E, K66R
B19: A98K (designed binder)
chain: B1 chain with K9E, A98K
B20: L82G (designed binder)
chain: B1 chain with K9E, L82G
B21: R8S (designed binder)
chain: B1 chain with R8S, K9E
B22: E77Q (designed binder)
chain: B1 chain with K9E, E77Q

For the experiment, the target named is T1, TNFR1 (Homo sapiens, UniProt P19438).
T1 chain: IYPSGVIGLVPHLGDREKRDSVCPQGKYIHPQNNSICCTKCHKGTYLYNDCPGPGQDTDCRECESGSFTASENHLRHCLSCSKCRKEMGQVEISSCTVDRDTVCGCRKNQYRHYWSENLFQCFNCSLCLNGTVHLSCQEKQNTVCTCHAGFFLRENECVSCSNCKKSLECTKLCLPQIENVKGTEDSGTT
Put plainly: yeast display SC50.
Consider B1, for which the “apparent Kd (screen)” value was 1.86 nM. The result for B2 reads 0.869 nM; that for B3, 0.593 nM; that for B4, 0.718 nM. The same measure for B5: 0.718 nM; for B6: 0.869 nM.

Consider B7, for which the “apparent Kd (screen)” value amounted to 0.446 nM.

B8: the “apparent Kd (screen)” value was found to be 12.5 nM. The result for B9 reads 0.446 nM; that for B10, 0.593 nM. For B11, the “apparent Kd (screen)” value worked out at 0.956 nM. The result for B12 reads 2.25 nM; that for B13, 4.39 nM; that for B14, 0.49 nM. As for B15, the “apparent Kd (screen)” value was determined as 0.539 nM. The result for B16 reads 0.718 nM. The same measure for B17: 0.593 nM; for B18: 0.869 nM.

Turning to B19, the “apparent Kd (screen)” value is 0.446 nM. With B20, the “apparent Kd (screen)” value came to 1.54 nM. B21: the “apparent Kd (screen)” value is 0.653 nM.

Regarding B22, the “apparent Kd (screen)” value came out at 0.593 nM.
